In publication PMC4328750 (EMBO Reports, 2014):

Target: purified recombinant endophilin A1-SH3 (ITC and NMR) (UniProt O35179 291-352)
Assay: ITC

purified recombinant endophilin A1-SH3 (ITC and NMR), sequence (O35179 291-352): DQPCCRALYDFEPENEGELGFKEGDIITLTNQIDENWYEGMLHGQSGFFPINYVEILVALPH

B1: purified recombinant intersectin 1-SH3B (ITC and NMR) (domain or fragment)
chain: LQAQALYPWRAKKDNHLNFNKNDVITVLEQQDMWWFGEVQGQKGWFPKSYVKLIS
- Kd: ~30 µM
- stoichiometry N: 1
